Results as given in the nanobody polyreactivity screen of Harvey et al. (2022).

Test: yeast display, Sf9 membrane polyspecificity reagent, FACS + sequencing; frameworks hold sequencing errors
Summary of the method: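 A synthetic nanobody library was expressed on Saccharomyces cerevisiae BJ5465 by galactose induction for 36–48 hours. The library was stained for 1 hour at 4 °C with 10% biotinylated, detergent-solubilized Sf9 membrane reagent and enriched with streptavidin microbeads before FACS. Low and high (top ~1%) gates were set on anti-HA fluorescence for expression and streptavidin fluorescence for reagent binding, and each polyreactivity label reflects the gate of origin.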

| Sequence | polyreactivity (PSR sort gate) |
| --- | --- |
| QGQLVESGGGLVQAGGSLRLSCAASGRTFYRNAMGWYRQAPGKEREFVAAITSIGGATYYADSVKGRFTISRDNAKNTVDLQMNSLKPEDTAVYYCAAKGFRYPEYDYWGQGTQVTVSS | low polyreactivity |
| QVQLVESGGGLVQAGGSLRLSCAASAGILRQNTMGWYRQAPGKERELVAAISSSGGRTYYADSVKGRFTISRDNAKNTVYLKMNSLIPDDPAVYYCAGKIVSRYRVIYDYWGQGTQVTVSS | high polyreactivity |
| QVQLVESGGGLVQAGGSLRLTCAATGIIFSYYAKGWYRQAPGKERELVAAISWGGGSTFYADSVKGRFTISRDNAKKTVSLQMKSLKPEDNAVLFCDADYGGDFGMDYCGQGTQVTVSS | low polyreactivity |
| QVQLVESGGGLVQAGGSLRLSCAASGRIFQANAMGWYRQAPGKERELVASISSGGSTNYADSVKGRFTISRDNAKNTVYLQMNSLKPEDTAVYYCAARHPSSAYWVGYYWYDYWGQGTQVTVSS | low polyreactivity |
| QVQLVESGGGLVQAGGSLRLSCAASGRISTYNAMGWYIQAPGKERELVASITGGGSTNYADSVKGRFTISRDNAKNTVYLQMNSLKPEDTAVYYCNAKARGQRGYRKIYGYDYWGQGTQVTVSS | high polyreactivity |
| QVQLVESGGGLVQAGGSLRLSCDASGITFVRYTIRWYRQAPGKEREFVAGITRGGSTYYADSVKGRFTISPDNAKNNVFLQRNSLKPEDTAVYYCAARPRFLRASVEYDYWGQGTQVTVSS | high polyreactivity |
| QVQLVESGGGLVQAGGSLRLSCAASGRTFLSNAMGWYRQAPGKERELVAAISNGDNTYYADSVKGRFTISRDNAKNTVVLQMNSLKPEDTAVYYCAADQYWSWIYYPVVEYDYWGEGTQVTVSS | low polyreactivity |
| QVQLVESGGGLVQAGGSLRLSCAASGIIFIFYDMGWYRQAPGKERELVATITSGTNTYADSVKGRFTISRDNAKNTVYLQMNSLKPEDTAVYYCNAGAVHKKPARDYWGQGTQVTVSS | low polyreactivity |
| QVQLVESARGLVQAGGSLRLRCAASGSTLSVYVMGWYRQAPGKERELVAAITRGGSTNYADSVKGRFTISRDNAKNTVYLQINSLNPEDTAVYYCAARSFVYYHHGEGSRSGRYYYWGQGTQVTVSS | high polyreactivity |
| QVQLVESGGGLVQAGGSLRLSCAASGIILSPYTMGWYRQAPGKERELVAGISRSGGTTYYADSVKGRFTISRDNAKNTVYLQMNSLKPEDTAVYYCAAGLIYGYSGYDSWGQGTQVTVSS | low polyreactivity |
| QVQLVESAGGLVQAGGSLRLSCAASGSTFYLNAMGWYRQAPGKERELVATINSSGSTYYADSVKGRFTISRDNAKNTVYLQMNSLKPEDTAVYYCNTVDSYVRSDYWGQGTQVPVSS | low polyreactivity |
| QVQLVESGGGLVQAGGSIRLSCAASGSTIGKNVMGWYRQAPGKERELVAAISARGGRTYYGDSVKGRFTISRDNAKNTVYLQMNSLKPVDTAVYYCNTERSYTGTGRYHSSTAYGYWGQGTQVTVSS | high polyreactivity |
| QVQLVESGGGLVQAGGSLRLICAASGSTFTGYAMGWYRQAPGKERELVAGITGSGGSTYYADSVKGRFTISRDNAKNTVYLQMNSLKPEDTAVYYCAAELYDYGDLYYSEYDYWGQGTQVTVSS | low polyreactivity |
| QVQLVDSGGGLDQAGGSLRLSCAASGSIFVSEYDMVWYIQAPGKERELVARSRWSSGSTYYADSVKGRFSISRDYAKNTVYVQMNSLKPEDTAVYYCNTVRTRERTDYDYWGQGTQVTVSS | low polyreactivity |
| QVQLVESGGGLVQAGGSLRLSSAAYGRTFRPYAMGWYRQAPGKERELVAAIDSSGTSTYYADSVKGRFTISLDNAKNTVYLQMNSLKPEDTAVYYCAAGSDPTGRRYDYWGQGTQVTVSS | low polyreactivity |
| QVQLVESGGGLVQAGGSLRLSCAASGNIFTYNAMGWYRQAPGKERELVAAISWTADSTYYADSVKGRFTISRDNAKNTVYLQMNSLKPEDTAVYYFAADSQYADYGYWGQGTQVTVSS | high polyreactivity |
| QVQLVESGGGLVQAGGSLRLSCAASGRIIGLYALGWYRQATGKERELVAAISSAGSTYYADSVKGRFTISRDNAKNTVYLQMNSLKPEDTAVYYCAKSRYRGYDYWGQGTQVTVSS | low polyreactivity |
| QVQLVESGGGLVQAGGSLRLSSAASGRIFGFNAMGWYRPAPGKERELVAAITWGVGSTYYADSVKGRFTISRDNAKNTVYLQMNSLKPEDTAVYYCAAVSYAAVYGFDYWGQGTQVTVSS | high polyreactivity |
| QVQLEESGGGLVQAGGSLRLSCAASVFPYYAMRWYRQATGKERELVAAITWSGADTYYADSVKGRFTISRDNAKNTVYLQMNSLKPEDTAVYYCAAEYSPIRDYEYWGQGTQVTVSS | low polyreactivity |
| QVQLVESGGGLVQAGGSLRLSCAASGSIFSTYVMVWYRQAPGKDRELVAAITVSVGSTYYADSVKGRFTISRDNAKNTVYLQMNSLKPEDTAVYYCAAYGGTGYPFDAYYHDYDYWGQGTQVTVSS | low polyreactivity |
| QVQLVESGGGLVQAGGSLRLSCAASGSIFYTYAMGWYRQAPGKERELVAAITYSGGSTYYADSVKGRFTISRDNAKNTVYLQMNSLKPEDTAVYYCAAYVIPGLGAEYGYWGQGTQVTVSS | low polyreactivity |
| QVQLEESGGGLVQAGGSLRLSCAASGGTFTNYAMGWYRQAPGTERELVAAITDSGATTYYADSVKGRFTISRDNAKNTVYLQMNRLKPEDNAVYYCNAELDLYTDFDYWGQGTQVTESS | low polyreactivity |

| Sequence | polyreactivity (PSR sort gate) |
| --- | --- |
| QVQLVESGGGLVQAGGSLRLSCAASGRTFLRYAMGWYRQAPGKEREFVAAISYSGSRTYYADSVKGRFTISRDTAKKTVYLQMNSLKPEDTAVYYCATDSDARVELAGYDYWGQGTQVTVSS | high polyreactivity |
| QVQLVESGGGLVQAGGSLRLSCAASGSIFPVNVMGWYRQEPGKERELVARITSGGSTIYADSVKGRFTISRDNAKNTVYLQMNSLKPEDTAVYYCAARQYHWYLPSYWYRYDYWGQGTQVTVSS | high polyreactivity |
| QVQLVESGGGLVQAGGSLRLSCAASGRIFYPYAMGWYRQAPGKERELVAAITSDGGSTYYADSVKGRFTISRDNAKNTVYLQMNSLKPEDTAVYYCAAYEAYKANVGGGYYYWGQGTQVTVSS | low polyreactivity |
| QVQLVESGGGLVQAGGSLRLSCAASGNIFHYYPMGWYRQAPGKERELVATISWRGDGTNYADSVKGRFTISRDNEKNTVYLQMISLKPEDTAVYYCAARGVWPDYDYWGQGTQVTVSS | low polyreactivity |
| QVQLVESGGGLVQAGGILRLSCAASGLTYFYYAMGWYRQAPGKESELVAAISWSGGRTYYADSVKGRFTISRDNAKNTVYLPMNSLKPEDTAVYYCAADYITAHSSYSTYGYWGQGTQVTVSS | low polyreactivity |
| QVQLVESGGGLVQAGVSLRLICDAYGRIFIVNAMGWYRQAPGKERELVAAISRGGSKNYADSVKGRFTISRDNAKNTVYLQMNSLKPEDTAVYYWNGDGSSYWYPVTQHGGDYCGQGTQVTVSS | low polyreactivity |
| QVQLVESGGGLVQAGGTLRLSCAASGIIFDTYVMGWYRQAPGKERELVAAITRSGGRTRYADTVKGRFTISRYNAKNTVYLQMNSLKPEDTAVYYCAARIPDRQDGYGYWGQGTQVTVSS | high polyreactivity |
| QVQLVESGGGLVQAGGSLRLSCAASGSILGLNVMGWYRQAPGTEREVVAAISRRGGSTYYADSVKGRFTISRDNAKNTVYLQMNSLKPEDTAVYYCAATRTARTMGYWGQGTQVTVSS | high polyreactivity |
| QVQLVESGRGLVQAGGSLRLSCAASGSTFQSNAMGWYRQATGKERELVAAIDQSGGSTYYADSVKGRFTISRHNAKNTVYLQMNSLKPEDSAVYYCAAEYYYPQQPRKWYGYWGQGTQVTVSS | high polyreactivity |
| QVQLVESGGGLVQAGGSLRLSCAASGLTFPPYAMGWYRQAPGKERELVATISFSTGNTYYADSVKGRFTISRDNAKNTVYLQLNSLKPEDTADYYCNKVFVLPYKFVAWFDSWGQGTQVTVSS | low polyreactivity |
| QVQLVESGGGLVQAGGSLRLSCAASGFTFVYYVMGWYRQAPGKERELVAAITYSGGSTYYADSVKGRFTISRDNAKNTVYLHMNSLKPEDTAVYYCAKEVQTYWYHYYYWGQGTQVTVSS | high polyreactivity |
| QVQLVESGGGLVQAGGSLRLSCAASGFIFGGYAMGWYRQAPGKERELVARITRSGGSTYYADSVKGRFTISRDNAKNTVYLQMNSLKPEDTAVYYCNARYGKPAYQYGMDYWGQGTQVTVSS | low polyreactivity |
| QVQLVESGGGLVQAGGSLRLSCAASGRTFYTNAMGCYRQAPGKERELVARIRRGGTTNYADSVKGRFTISRDNAKNTVYLQMNSLKPEDTAVYYCSYSYGYWGQGTQVTVSS | high polyreactivity |
| QVQLQESGGGLVKAGGSLRLSCAASGNISNHNDMGWYRQAPGKEREFVAGITAGGITNYADSVKGRFTISRDNAKNTVYLLMKRLKPEDTAVYYCAAYPDYAKSYGFWGQGTQATVSS | low polyreactivity |
| QVQLVESGGGLVQAGGSLRLSCAASGRTFSAYAMGWYRQAPGKERELVARITSVDSTNYADSVKGRFTISRDNAKNTVYLQMNSLKPEDTAVYYCNATFGYPFVDYDDYWGQGTQVTGSS | low polyreactivity |
| QVQLVESGGGLVQAGGSLRLSCAASGSTFNNYGMGWYTQAPGTERELVAAITKSGGITYYADSVKGRFTISRDNAKNTVYLQMNRLKREDTAVYYCAAAYTIYWFSYRVLYYYWGQGTQVTVSS | low polyreactivity |
| QVQLVESGGGLVQAGGSLRLSCAASGSIVGRYAMGWYSQAPGQERELVAAISTGDSTYYADSVKGRFTISRDNAKNTVYLQMNSLKPEDTAVYYCNRRGRRVYDYWGQGTQVTVSS | high polyreactivity |
| QVQLVESGGGLVQAGGSLRLSCAASGRTFYINAMGWYRQAPGKERELVAGITRGGSTNYADSVKGRFTISRDNAKNTVYLQMNSLKPEDTAVYYCNAARAERWGRGSYPEFDYWGQGTQVTVSS | high polyreactivity |
| QVQLLESGGGLVQAGGSLRLSCAASGSTFWWNTMGWYRQAPGKERELVADIRPSGGGTYYADSVKGRFTISRDNAKNTVYLPMHSLKPEATAVYYCNADPKWEMGSWGQGTQVTVSS | low polyreactivity |
| QVQHVESGGGLVQAGGSLRLSCAASGRTFDWNAMGWYRQAPGKERELVAAITYSGGGTYYADSVKGRFTISRDNAKNTVYLQMNSLKPEETAVYYCAAGYPGTWSYYYWGQGTQVTVSS | low polyreactivity |
| QVQLVESGGGLVQAGGSLRLSCAASGRIFYNYAMGWYRQAPGKERELVAAITRRAGRTYYADSVKGRFTISRDNAKNTVYLQMNSLKPEDTAVFYCAKDEPGSSRVLYDYWGQVTQVTVSS | low polyreactivity |
